Experimental findings from publication PMC10989797, “Mechanistic insights into the key marine dimethylsulfoniopropionate synthesis enzyme DsyB/DSYB” (mLife, 2022) are described below.

Data set [1] has as its target T1, N. denitrificans DsyB (Nisaea denitrificans, UniProt A0A979HMS8).
T1 construct: full length, 337 residues (Met1-Glu337), C-terminal His-tag (pET22b), E. coli BL21(DE3); initiator Met mostly cleaved; monomer 37,215 Da predicted; homodimer in solution
Description: X-ray crystal structure of complex; native MS. Format: binding.

In data set [2] the target is Nisaea denitrificans DsyB (Nisaea denitrificans DR41_21 (DSM 18348)). Kind of data set: SEC; gel filtration of DsyB in solution; conalbumin (75,000 Da) and ovalbumin (43,000 Da) as markers. Background: Size exclusion chromatography separates by hydrodynamic size, large species first.
The target is the same in data set [3]. Kind of data set: native MS; nondenaturing MS of as-isolated DsyB exchanged into 250 mM ammonium acetate, pH 8.0; dimer region also seen with 25 equivalents of SAM.
The target in data set [4] is T1, N. denitrificans DsyB. Description: X-ray crystal structure of complex. Particulars: DsyB-SAH-MTHB complex; SAM site in C-domain; 1 mM SAH and 1 mM DL-MTHB. Type of data set: binding.
Substrate in data set [5]: C[S+](CC[C@H](N)C(=O)O)C[C@H]1O[C@@H](n2cnc3c(N)ncnc32)[C@H](O)[C@@H]1O
Kind of data set: cells, lysate or membranes named. To be noted: 1 mM DL-MTHB, 0-2 mM SAM, 1.97 µM enzyme activated with heat-killed L. aggregata dsyB- lysate fractions, 50 mM Tris-HCl, 100 mM NaCl, pH 8.0, 28 °C.

Substrate in data set [6]: CSCCC(O)C(=O)O
Kind of data set: GC of DMS released from product by alkali; nonlinear fit. Type of data set: biochemical, Nisaea denitrificans. To be noted: 1 mM SAM, 1.97 µM enzyme activated with heat-killed L. aggregata dsyB- lysate fractions, racemic substrate 0-2 mM, 50 mM Tris-HCl, 100 mM NaCl, pH 8.0, 28 °C.

For `C[S+](CC[C@H](N)C(=O)O)C[C@H]1O[C@@H](n2cnc3c(N)ncnc32)[C@H](O)[C@@H]1O` (stereo partly shown) [SAM], the “X-ray crystal structure of complex; native MS” value at N. denitrificans DsyB [1] (DsyB-SAM complex, SAM bound in chains A-C, not D, 1 mM SAM) is “three monomers (Chain A, B, and C) of the asymmetric unit contained SAM molecules”.
Take Nisaea denitrificans DsyB (enzyme): the stoichiometry N in data set [2] and in data set [3] was 2 each time.
Take `Nc1ncnc2c1ncn2[C@@H]1O[C@H](CSCC[C@H](N)C(=O)O)[C@@H](O)[C@H]1O` [SAH]: the “X-ray crystal structure of complex” value at N. denitrificans DsyB [4] was “we solved the crystal structures of complexes of DsyB with SAM and with SAH‐MTHB”.
As to `CSCCC(O)C(=O)O` (racemic) [MTHB], the “X-ray crystal structure of complex; native MS” value at N. denitrificans DsyB [1] (DsyB-SAH-MTHB complex, poor MTHB density, >6 Å from SAH, presumed initial binding site, 1 mM DL-MTHB) was “the MTHB cosubstrate molecule is located between the C‐domain and the N‐domain”.

B1: N. denitrificans DsyB (Nisaea denitrificans DSM 18348) (protein)
chain: MTLLTNAEEISDIAFGFMGSKALFAALHHGVFTCLADGPLSVEEMAAATGLHPDRVQTLLTALASLGVVSAVEGRFANSPAAESFLVKGAKYDFGDYLRLQVDRQMYGLLDQIEDAIANNLPDDATSSYADWFSDPEQAKLYSNSQHAGSLGPARGLAKLIDLSGGKKLLDVGGGTGAFAITLCKAFADLAATIVDFPNVAALGKGYVEKAGLSDRIEYVIGDALRTEWPREQDAILMSYLFSGVAGDEHDSLLKRAYDHLVPGGRLLIHDFVVTADRTGPKLAALWQLQHTAFTPEARSLDDEWLAEQLKKTGFTDVKVGPMIPGMTMLAEAVRPE
notes: full length, 337 residues (Met1-Glu337), C-terminal His-tag (pET22b), E. coli BL21(DE3); initiator Met mostly cleaved; monomer 37,215 Da predicted; homodimer in solution
Take B1: the Km in data set [5] stood at 160 ± 2 µM; in data set [6] it was 140 ± 20 µM.

The stoichiometry N is a count of units in the complex or per binding partner. As a reminder, the Km is the concentration of substrate that gives half-maximal velocity.
